Measured values: patent US20120164659A1 (NEXIGEN, published 2012)

Columns and labels:
[1] = target: T1, Sos-2xSpc-Vif fusion protein (negative control target protein, expressed from pADH-Sos-2xSpc-vif); experiment: Sos recruitment system in cdc25-2 yeast, growth at 37 C on galactose (FIG. 2 row D: MARCH7+SOS-Vif)
T1 construct: Heterologous control bait in cdc25-2 yeast; also called Sos-Vif; SOS-Vif

[2] = target: T1, Sos-2xSpc-Vif fusion protein (negative …); experiment: Sos recruitment system in cdc25-2 yeast, growth at 37 C on galactose (FIG. 2 row B: GBP2+Sos-Vif)

Binder	binding result [1]	binding result [2]
membrane-associated Ring-finger 7 (MARCH7), prey fusion with myristoylation signal from the human hepatocyte cDNA library (other, myristoylation signal at the N-terminus (membrane localisation), also called axotrophin; membrane-associated RING-CH protein VII; not shown: myristoylation signal of the pmyr library vector) MESKPSRIPRRISVQPSSSLSARMMSGSRGSSLNDTYHSRDSSFRLDSEYQSTSASASASPFQSAWYSESEITQGARSRSQNQQRDHDSKRPKLSCTNCTTSAGRNVGNGLNTLSDSSWRHSQVPRSSSMVLGSFGTDLMRERRDLERRTDSSISNLMDYSHRSGDFTTSSYVQDRVPSYSQGARPKENSMSTLQLNTSSTNHQLPSEHQTILSSRDSRNSLRSNFSSRESESSRSNTQPGFSYSSSRDEAPIISNSERVVSSQRPFQESSDNEGRRTTRRLLSRIASSMSSTFFSRRSSQDSLNTRSLNSENSYVSPRILTASQSRSNVPSASEVPDNRASEASQGFRFLRRRWGLSSLSHNHSSESDSENFNQESEGRNTGPWLSSSLRNRCTPLFSRRRREGRDESSRIPTSDTSSRSHIFRRESNEVVHLEAQNDPLGAAANRPQASAASSSATTGGSTSDSAQGGRNTGISGILPGSLFRFAVPPALGSNLTDNVMITVDIIPSGWNSADGKSDKTKSAPSRDPERLQKIKESLLLEDSEEEEGDLCRICQMAAASSSNLLIEPCKCTGSLQYVHQDCMKKWLQAKINSGSSLEAVTTCELCKEKLELNLEDFDIHELHRAHANEQAEYEFISSGLYLVVLLHLCEQSFSDMMGNTNEPSTRVRFINLARTLQAHMEDLETSEDDSEEDGDHNRTFDIA	no binding	
Interferone-induced guanylate binding protein-2 (GBP2), prey fusion with myristoylation signal from the human hepatocyte cDNA library (other, myristoylation signal at the N-terminus (membrane localisation), also called NM-004120; not shown: myristoylation signal of the pmyr library vector) MAPEINLPGPMSLIDNTKGQLVVNPEALKILSAITQPVVVVAIVGLYRTGKSYLMNKLAGKKNGFSLGSTVKSHTKGIWMWCVPHPKKPEHTLVLLDTEGLGDIEKGDNENDSWIFALAILLSSTFVYNSMGTINQQAMDQLHYVTELTDRIKANSSPGNNSVDDSADFVSFFPAFVWTLRDFTLELEVDGEPITADDYLELSLKLRKGTDKKSKSFNDPRLCIRKFFPKRKCFVFDWPAPKKYLAHLEQLKEEELNPDFIEQVAEFCSYILSHSNVKTLSGGIPVNGPRLESLVLTYVNAISSGDLPCMENAVLALAQIENSAAVEKAIAHYEQQMGQKVQLPTETLQELLDLHRDSEREAIEVFMKNSFKDVDQMFQRKLGAQLEARRDDFCKQNSKASSDCCMALLQDIFGPLEEDVKQGTFSKPGGYRLFTQKLQELKNKYYQVPRKGIQAKEVLKKYLESKEDVADALLQTDQSLSEKEKAIEVERIKAESAEAAKKMLEEIQKKNEEMMEQKEKSYQEHVKQLTEKMERDRAQLMAEQEKTLALKLQEQERLLKEGFENESKRLQKDIWDIQMRSKSLEPICNIL		no binding
